Experimental data published in patent publication WO2018019380A1 (dated 2018).
One block for each binder: values may come before it.

Target: T1, CEACAM1 (as used for the Kd / Kon / Koff values) (human, UniProt P13688 35-428, limits assumed)
T1 sequence (looked up): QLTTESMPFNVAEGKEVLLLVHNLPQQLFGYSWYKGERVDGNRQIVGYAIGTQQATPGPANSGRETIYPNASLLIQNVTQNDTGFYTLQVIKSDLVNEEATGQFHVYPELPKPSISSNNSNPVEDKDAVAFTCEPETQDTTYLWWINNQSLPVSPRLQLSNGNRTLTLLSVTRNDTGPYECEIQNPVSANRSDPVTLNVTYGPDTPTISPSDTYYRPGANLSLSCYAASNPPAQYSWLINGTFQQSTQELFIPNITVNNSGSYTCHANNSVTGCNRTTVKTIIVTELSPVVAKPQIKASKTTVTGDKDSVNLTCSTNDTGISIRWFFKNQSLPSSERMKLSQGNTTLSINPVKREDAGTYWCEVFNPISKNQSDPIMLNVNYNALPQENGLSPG
Assay: method not stated

Kd: 10 nM
B1: Anti-human CEACAM1 antibody (Clone B3-17) (antibody, V domains shown)
VH: GPELVKPGTSVKMSCKASGYTFTTYVMHWVQQKPGQGLDWIGFFNPYNDGTKYNEKFKGKATLTSDKSSSTAYMELSSLTSEDSAVYYCARWAYDGSYAYWGQGTTLTVSS
VL: SYLSVFLGGRVTITCKASDHINNWLAWYQQKPGNAPRLLISGATSLETGVPSRFSGSGSGKDYTLSIISLQTEDVATYYCQQYWRTPFTFGSGTKLEIK
notes: Mouse monoclonal antibody from hybridoma B3-17; also called Antikörper B3-17; antibody B3-17

Kd: 23 nM
B2: Anti-human CEACAM1 antibody (Clone 6G5J) (antibody, V domains shown)
VH: KPGETVKISCKTSGYIFRNYGMKWVKQAPGKGLKWMGWINTYTGEPTYADDFKGRFAFSLETSASTAYLQINNLKNEDMATYFCARRGMITTSNYALDNWGQGTSVTVSS
VL: SSLSASLGDRVTISCRASQDISNYLNWYQQKPDGTIKLLIYYTSKLHSGVPSRFSGSGSGTDYSLTISNLDQEDIATYFCQQGNTLPWTFGGGTKLEIK
notes: Mouse monoclonal antibody from hybridoma 6G5J; also called Antikörper 6G5J; antibody 6G5J

Kd: 26 nM
B3: Anti-human CEACAM1 antibody (Clone 18-20) (antibody, V domains shown)
VH: KPGETVKISCKASGYTFTVYGMNWVKQAPGKDLKWMGWINTYTGEPTYADDFKGRFAFSLETSASTAYLQINNLKNEDMATYFCARKAFYRYDGGMDYWGQGTSVTVSS
VL: SSLSASLGGKVTITCKASQDINKFLAWYQHKPGKGPRLLIHYTSTLQPGIPSRFSGSGSGRDYSFSISNLEPEDIATYYCLQYDNLYTFGGGTKLEIK
notes: Mouse monoclonal antibody from hybridoma 18-20; also called Antikörper 18-20; antibody 18-20
